From the supplement of paper PMC10126150
± gives the standard deviation of the averaged measurements.

Test system: ATP
Assay: switch fluorescence ratio, 500 uM ATP over buffer (Cy3 cluster intensity, sum of 5 cycles each) (fold (ratio)); higher = stronger signal-on switching upon ATP binding; sequences stand for … in TCGTCGGCAGCGTCAGATGTGTATAAGAGACAGTTTTTTTTTTTTTTTTTTTTTTTTT…TC
Conditions: aptamer strand: ATP DNA aptamer (quencher-CACCTGGGGGAGTATTGCGGAGGAAGG + anchor), 100 nM annealed; ATP concentration: 500 uM
Method in brief: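 The fluorescence ratio divides summed target-cycle Cy3 intensity by summed buffer-cycle Cy3 intensity for each cluster and is averaged per switch-domain sequence. Cy3-labelled switching-strand clusters on a modified Illumina MiSeq flow-cell were annealed to 100 nM quencher-labelled ATP aptamer, then imaged in selection buffer and again after 15 min with 500 uM ATP at 22 °C. Five such cycles were run, with NaOH stripping and re-annealing between them, and clusters outside 100-1000 RFU were excluded.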
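Also: ATP exposure 15 min at 22 °C before imaging.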

TCCAGGGCGG
switch fluorescence ratio: 1.06 ± 0.022

CAATAATTTG
switch fluorescence ratio: 0.99184 ± 0.00043

TTAGATTGCA
switch fluorescence ratio: 1.001 ± 0.0083

ATGGGGTGTC
switch fluorescence ratio: 0.943 ± 0.067

CGGATGCATG
switch fluorescence ratio: 1.02 ± 0.046

TTGATCTGGT
switch fluorescence ratio: 1.01 ± 0.027

AATGTCAGGA
switch fluorescence ratio: 1.01 ± 0.044

TTATTATTTC
switch fluorescence ratio: 0.98 ± 0.05

GATAGTAAGT
switch fluorescence ratio: 0.998 ± 0.077

CAATTTAAGG
switch fluorescence ratio: 0.997 ± 0.041

AAAGAAGGGG
switch fluorescence ratio: 0.995 ± 0.015

ATAGCAGGCG
switch fluorescence ratio: 1.01 ± 0.027

GGGCGTTCTG
switch fluorescence ratio: 1.04 ± 0.023

AAGGCTATGG
switch fluorescence ratio: 0.988 ± 0.027

AGTATAATTT
switch fluorescence ratio: 0.978 ± 0.045

TTATTAAAAG
switch fluorescence ratio: 1.2 ± 0.39

GTGAGGGTCG
switch fluorescence ratio: 1.01 ± 0.011

ATAACTGTAT
switch fluorescence ratio: 1.122 ± 0.0049

GGTCGGGACG
switch fluorescence ratio: 0.9588 ± 0.0015

TTCGTGTTGG
switch fluorescence ratio: 0.973 ± 0.025

TGTGGGGTCG
switch fluorescence ratio: 1.01 ± 0.058

ACAGGCGGCT
switch fluorescence ratio: 1.1 ± 0.061

CGCTTTGGTT
switch fluorescence ratio: 1.04 ± 0.012

CAGGGCGGA
switch fluorescence ratio: 0.993 ± 0.015

CATATGTCTG
switch fluorescence ratio: 0.994 ± 0.015

GCCTTGGACT
switch fluorescence ratio: 0.976 ± 0.027

TAGAATGTGT
switch fluorescence ratio: 1.027 ± 0.0043

GGATGTTATT
switch fluorescence ratio: 0.9915 ± 0.0094

ATGATACAGT
switch fluorescence ratio: 1.021 ± 0.0067

TCCTGAGGAT
switch fluorescence ratio: 1 ± 0.058

CAGTTGGGGG
switch fluorescence ratio: 1 ± 0.031

AAAGGTTGTT
switch fluorescence ratio: 1.013 ± 0.0037

GTTGGCCGGC
switch fluorescence ratio: 1.11 ± 0.073

AGCGATTGCC
switch fluorescence ratio: 1.01 ± 0.016

TTTTGGATTA
switch fluorescence ratio: 1 ± 0.039

TCAAGAGATG
switch fluorescence ratio: 1 ± 0.015

CATTTTTGGC
switch fluorescence ratio: 1.03 ± 0.027

TTGATAAAGG
switch fluorescence ratio: 1.02 ± 0.026

TTGATATTTT
switch fluorescence ratio: 1.04 ± 0.096

CGGGCTGTTT
switch fluorescence ratio: 0.977 ± 0.013

GCATGGTTAA
switch fluorescence ratio: 1.019 ± 0.0023

GTTGTGTCGG
switch fluorescence ratio: 1.01 ± 0.019

TTTTTGTTAC
switch fluorescence ratio: 1.08 ± 0.027

AAGTGGGCCT
switch fluorescence ratio: 0.981 ± 0.038

ATATACTTCT
switch fluorescence ratio: 1.02 ± 0.025

AAAAAACTAT
switch fluorescence ratio: 1.02 ± 0.018

TCAATCGTTG
switch fluorescence ratio: 1.05 ± 0.016

TATTAGAATA
switch fluorescence ratio: 0.9814 ± 0.006

GCTTTAAGTA
switch fluorescence ratio: 0.992 ± 0.044

AGGGGTACTC
switch fluorescence ratio: 0.9982 ± 0.0076

TTTGATTGCG
switch fluorescence ratio: 1 ± 0.011

TGATCAAGTG
switch fluorescence ratio: 0.99 ± 0.049

GGAGATATTA
switch fluorescence ratio: 1.01 ± 0.026

AGGGGGAGGA
switch fluorescence ratio: 1.01 ± 0.04

GCGTCTATTG
switch fluorescence ratio: 0.9987 ± 0.0051

GGGACATTAT
switch fluorescence ratio: 1 ± 0.02

GTGCCAGGAT
switch fluorescence ratio: 1.03 ± 0.052

CCAGTGTGTG
switch fluorescence ratio: 1.09 ± 0.062

ATGTGCAGCG
switch fluorescence ratio: 1.025 ± 0.0049

TCATTAAGGT
switch fluorescence ratio: 0.995 ± 0.03

TGAGAAATGG
switch fluorescence ratio: 1.02 ± 0.036

TTTGGGGGAA
switch fluorescence ratio: 0.994 ± 0.046

AGGTGGGTGG
switch fluorescence ratio: 1.02 ± 0.04

TGGAAGAGGG
switch fluorescence ratio: 1 ± 0.018

TTGAAGAGG
switch fluorescence ratio: 1.02 ± 0.035

CATAGTCCTC
switch fluorescence ratio: 0.964 ± 0.041

TTGAGGATCA
switch fluorescence ratio: 1.02 ± 0.029

CGTGCAGCGG
switch fluorescence ratio: 1 ± 0.014

TAAGAGAAGT
switch fluorescence ratio: 1.018 ± 0.0073

TTCGGGAAGC
switch fluorescence ratio: 1.018 ± 0.0056

GAGGCGGTGG
switch fluorescence ratio: 1.009 ± 0.005

ACCCTGGACC
switch fluorescence ratio: 1.066 ± 0.0086

AGACCTGGCC
switch fluorescence ratio: 1.14 ± 0.011

ACTATGTAGG
switch fluorescence ratio: 0.979 ± 0.013

TTGCACAAAA
switch fluorescence ratio: 1.033 ± 0.0078

GATGGTTGAA
switch fluorescence ratio: 0.984 ± 0.021

TTTTGATTTG
switch fluorescence ratio: 1 ± 0.034

TTAAGTGAAT
switch fluorescence ratio: 0.979 ± 0.066

TGGAGGTCCG
switch fluorescence ratio: 1.06 ± 0.023

GAGGTCATTC
switch fluorescence ratio: 0.999 ± 0.029

GGATGTTCGT
switch fluorescence ratio: 0.9911 ± 0.0083

GAAGTTGTGT
switch fluorescence ratio: 0.987 ± 0.031

GATTTTCTTG
switch fluorescence ratio: 1.03 ± 0.017

TGGTTGTTTA
switch fluorescence ratio: 0.993 ± 0.0045

TGGTATTTAT
switch fluorescence ratio: 1.012 ± 0.0072

AATCTGCTGC
switch fluorescence ratio: 1.09 ± 0.056

TAGAGTAGAT
switch fluorescence ratio: 1.01 ± 0.02

TCCAGAAAGG
switch fluorescence ratio: 1.014 ± 0.0031

GGTGTTTCAT
switch fluorescence ratio: 0.973 ± 0.053

TAGAATCGTT
switch fluorescence ratio: 0.97 ± 0.05

GGGGCCCATG
switch fluorescence ratio: 0.992 ± 0.021

GAGGGGTTGG
switch fluorescence ratio: 0.964 ± 0.033

TTGACTTGTG
switch fluorescence ratio: 0.971 ± 0.022

TGGGAACCAA
switch fluorescence ratio: 1.02 ± 0.022

TATTAACGTA
switch fluorescence ratio: 1.08 ± 0.022

TTTAAGAGTG
switch fluorescence ratio: 0.992 ± 0.0031

CGCTTAATTA
switch fluorescence ratio: 1.01 ± 0.041

ATGGGGGAAA
switch fluorescence ratio: 0.991 ± 0.011

CGTGCTTTCT
switch fluorescence ratio: 0.999 ± 0.029

TCCGGGGGAG
switch fluorescence ratio: 1 ± 0.023
